{
  "source": "paper doi:10.1101/2023.08.04.551977",
  "about": "(bioRxiv, 2023)",
  "key": {"Wild-type menin (human) [1]": {"molecular_target": "Wild-type menin (human) (UniProt O00255)", "test": "MST"}, "[2]": {"molecular_target": "menin Δ460-519/ 586-615 (human) (UniProt O00255)", "test": "MST"}, "menin Δ460-519 (human)": {"molecular_target": "menin Δ460-519 (human) (UniProt O00255)", "test": "MST"}, "menin-MLL complex": {"molecular_target": "menin-MLL complex (UniProt O00255)", "test": "MST"}, "Wild-type menin (human) [3]": {"molecular_target": "Wild-type menin (human) (UniProt O00255)", "test": "MST", "remark": "listed apart in the source"}, "[4]": {"molecular_target": "His-sumo-AR MBR (aa. G473-T560)", "test": "BLI"}, "His-sumo-AR MBR A": {"molecular_target": "His-sumo-AR MBR A (UniProt P10275)", "test": "BLI"}, "His-sumo-AR MBR B": {"molecular_target": "His-sumo-AR MBR B (UniProt P10275)", "test": "BLI"}, "[5]": {"molecular_target": "His-sumo-AR MBR (aa. G473-T560)", "test": "BLI", "remark": "listed apart in the source"}, "Wild-type menin (human) [6]": {"molecular_target": "Wild-type menin (human) (UniProt O00255)", "test": "dynamic light scattering"}, "Wild-type menin (human) [7]": {"molecular_target": "Wild-type menin (human) (UniProt O00255)", "test": "SEC"}, "dynamic light scattering": {"molecular_target": "the molecule itself", "test": "dynamic light scattering"}, "MST": {"molecular_target": "the molecule itself", "test": "MST"}, "HPLC-SAXS": {"molecular_target": "the molecule itself", "test": "HPLC-SAXS"}, "AR-v7": {"molecular_target": "T1, AR-v7 (UniProt P10275-3 1-644)", "T1 sequence": "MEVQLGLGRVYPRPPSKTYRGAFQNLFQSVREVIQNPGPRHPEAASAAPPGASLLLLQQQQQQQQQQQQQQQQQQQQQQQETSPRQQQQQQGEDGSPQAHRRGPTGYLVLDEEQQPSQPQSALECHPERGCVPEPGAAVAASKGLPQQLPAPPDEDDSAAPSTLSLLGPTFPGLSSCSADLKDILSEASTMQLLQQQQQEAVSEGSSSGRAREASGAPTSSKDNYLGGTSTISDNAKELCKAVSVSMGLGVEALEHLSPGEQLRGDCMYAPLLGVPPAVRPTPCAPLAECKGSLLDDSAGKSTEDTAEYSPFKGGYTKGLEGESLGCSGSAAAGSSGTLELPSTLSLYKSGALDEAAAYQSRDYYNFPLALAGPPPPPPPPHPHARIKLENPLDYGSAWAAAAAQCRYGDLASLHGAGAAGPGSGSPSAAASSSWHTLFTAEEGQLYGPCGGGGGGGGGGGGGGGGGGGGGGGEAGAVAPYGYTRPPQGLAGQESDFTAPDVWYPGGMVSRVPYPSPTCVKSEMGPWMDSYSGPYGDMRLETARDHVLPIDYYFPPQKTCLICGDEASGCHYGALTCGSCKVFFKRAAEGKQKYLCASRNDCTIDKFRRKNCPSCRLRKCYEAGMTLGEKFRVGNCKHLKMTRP", "test": "MST"}, "AR MBR (aa. G473-T560)": {"molecular_target": "AR MBR (aa. G473-T560)", "test": "NMR titration"}},
  "note": "Like-named read-outs stand apart in the source and are kept apart here.",
  "data": [
    {"molecule": "His-sumo-AR MBR A (from UniProt P10275 473-518) (domain or fragment)", "values": [
      {"measurement": "Kd", "setting": "Wild-type menin (human) [1]", "result": 1000, "unit": "µM"}
    ]},
    {"molecule": "His-sumo-AR MBR B (from UniProt P10275 509-559) (domain or fragment)", "values": [
      {"measurement": "Kd", "setting": "Wild-type menin (human) [1]", "result": 24, "unit": "µM"}
    ]},
    {"molecule": "His-sumo-AR MBR (aa. G473-T560) (domain or fragment)", "values": [
      {"measurement": "Kd", "setting": "[2]", "result": 2000, "unit": "nM"},
      {"measurement": "Kd", "setting": "Wild-type menin (human) [1]", "result": 1.7, "unit": "µM"},
      {"measurement": "Kd", "setting": "menin Δ460-519 (human)", "result": 6.3, "unit": "µM"},
      {"measurement": "Kd", "setting": "menin-MLL complex", "result": 10.8, "unit": "µM"},
      {"measurement": "Kd", "setting": "Wild-type menin (human) [3]", "result": 9.8, "unit": "µM"}
    ]},
    {"molecule": "menin-MLL complex (from UniProt O00255;Q03164)", "values": [
      {"measurement": "Kd", "setting": "[4]", "result": 10.5, "unit": "µM"}
    ]},
    {"molecule": "Wild-type menin (natural protein, RED-NHS 2nd generation dye label on the labelled partner in the MST experiments) MGLKAAQKTLFPLRSIDDVVRLFAAELGREEPDLVLLSLVLGFVEHFLAVNRVIPTNVPELTFQPSPAPDPPGGLTYFPVADLSIIAALYARFTAQIRGAVDLSLYPREGGVSSRELVKKVSDVIWNSLSRSYFKDRAHIQSLFSFITGTKLDSSGVAFAVVGACQALGLRDVHLALSEDHAWVVFGPNGEQTAEVTWHGKGNEDRRGQTVNAGVAERSWLYLKGSYMRCDRKMEVAFMVCAINPSIDLHTDSLELLQLQQKLLWLLYDLGHLERYPMALGNLADLEELEPTPGRPDPLTLYHKGIASAKTYYRDEHIYPYMYLAGYHCRNRNVREALQAWADTATVIQDYNYCREDEEIYKEFFEVANDVIPNLLKEAASLLEAGEERPGEQSQGTQSQGSALQDPECFAHLLRFYDGICKWEEGSPTPVLHVGWATFLVQSLGRFEGQVRQKVRIVSREAEAAEAEEPWGEEAREGRRRGPRRESKPEEPPPPKKPALDKGLGTGQGAVSGPPRKPPGTVAGTARGPEGGSTAQVPAPTASPPPEGPVLTFQSEKMKGMKELLVATKINSSAIKLQLTAQSQVQMKKQKVSTPSDYTLSFLKRQRKGL", "values": [
      {"measurement": "Kd", "setting": "His-sumo-AR MBR A", "result": 3, "unit": "mM"},
      {"measurement": "Kd", "setting": "His-sumo-AR MBR B", "result": 47, "unit": "µM"},
      {"measurement": "Kd", "setting": "[5]", "result": 10.5, "unit": "µM"},
      {"measurement": "stoichiometry N", "setting": "Wild-type menin (human) [6]", "result": 2},
      {"measurement": "Kd", "setting": "Wild-type menin (human) [1]", "result": 10.4, "unit": "µM"},
      {"measurement": "stoichiometry N", "setting": "Wild-type menin (human) [7]", "result": 2}
    ]},
    {"molecule": "AR MBR-DBD-LBD (domain or fragment) GEAGAVAPYGYTRPPQGLAGQESDFTAPDVWYPGGMVSRVPYPSPTCVKSEMGPWMDSYSGPYGDMRLETARDHVLPIDYYFPPQKTCLICGDEASGCHYGALTCGSCKVFFKRAAEGKQKYLCASRNDCTIDKFRRKNCPSCRLRKCYEAGMTLGARKLKKLGNLKLQEEGEASSTTSPTEETTQKLTVSHIEGYECQPIFLNVLEAIEPGVVCAGHDNNQPDSFAALLSSLNELGERQLVHVVKWAKALPGFRNLHVDDQMAVIQYSWMGLMVFAMGWRSFTNVNSRMLYFAPDLVFNEYRMHKSRMYSQCVRMRHLSQEFGWLQITPQEFLCMKALLLFSIIPVDGLKNQKFFDELRMNYIKELDRIIACKRKNPTSCSRRFYQLTKLLDSVQPIARELHQFTFDLLIKSHMVSVDFPEMMAEIISVQVPKILSGKVKPIYFHTQ", "values": [
      {"measurement": "stoichiometry N", "setting": "dynamic light scattering", "result": 2}
    ]},
    {"molecule": "menin Δ460-519/ 586-615 (natural protein, RED-NHS 2nd generation dye label on the labelled partner in the MST experiments) MGLKAAQKTLFPLRSIDDVVRLFAAELGREEPDLVLLSLVLGFVEHFLAVNRVIPTNVPELTFQPSPAPDPPGGLTYFPVADLSIIAALYARFTAQIRGAVDLSLYPREGGVSSRELVKKVSDVIWNSLSRSYFKDRAHIQSLFSFITGTKLDSSGVAFAVVGACQALGLRDVHLALSEDHAWVVFGPNGEQTAEVTWHGKGNEDRRGQTVNAGVAERSWLYLKGSYMRCDRKMEVAFMVCAINPSIDLHTDSLELLQLQQKLLWLLYDLGHLERYPMALGNLADLEELEPTPGRPDPLTLYHKGIASAKTYYRDEHIYPYMYLAGYHCRNRNVREALQAWADTATVIQDYNYCREDEEIYKEFFEVANDVIPNLLKEAASLLEAGEERPGEQSQGTQSQGSALQDPECFAHLLRFYDGICKWEEGSPTPVLHVGWATFLVQSLGRFEGQVRQKVRIVSGTVAGTARGPEGGSTAQVPAPTASPPPEGPVLTFQSEKMKGMKELLVATKINSSAIKLQLTAQSQV", "values": [
      {"measurement": "Kd", "setting": "MST", "result": "3200 ± 800", "unit": "nM"}
    ]},
    {"molecule": "menin Δ460-519 (natural protein, RED-NHS 2nd generation dye label on the labelled partner in the MST experiments) MGLKAAQKTLFPLRSIDDVVRLFAAELGREEPDLVLLSLVLGFVEHFLAVNRVIPTNVPELTFQPSPAPDPPGGLTYFPVADLSIIAALYARFTAQIRGAVDLSLYPREGGVSSRELVKKVSDVIWNSLSRSYFKDRAHIQSLFSFITGTKLDSSGVAFAVVGACQALGLRDVHLALSEDHAWVVFGPNGEQTAEVTWHGKGNEDRRGQTVNAGVAERSWLYLKGSYMRCDRKMEVAFMVCAINPSIDLHTDSLELLQLQQKLLWLLYDLGHLERYPMALGNLADLEELEPTPGRPDPLTLYHKGIASAKTYYRDEHIYPYMYLAGYHCRNRNVREALQAWADTATVIQDYNYCREDEEIYKEFFEVANDVIPNLLKEAASLLEAGEERPGEQSQGTQSQGSALQDPECFAHLLRFYDGICKWEEGSPTPVLHVGWATFLVQSLGRFEGQVRQKVRIVSGTVAGTARGPEGGSTAQVPAPTASPPPEGPVLTFQSEKMKGMKELLVATKINSSAIKLQLTAQSQVQMKKQKVSTPSDYTLSFLKRQRKGL", "values": [
      {"measurement": "Kd", "setting": "MST", "result": "1900 ± 900", "unit": "nM"},
      {"measurement": "stoichiometry N", "setting": "HPLC-SAXS", "result": 2},
      {"measurement": "Kd", "setting": "AR-v7", "result": "1700 ± 1800", "unit": "nM"},
      {"measurement": "Kd", "setting": "AR MBR (aa. G473-T560)", "result": 15.7, "unit": "µM"}
    ]}
  ]
}
